Measurements taken from PMC6112833, “Combinatorial engineering of N-TIMP2 variants that selectively inhibit MMP9 and MMP14 function in the cell” (Oncotarget, 2018).

T1: MMP9 catalytic domain lacking the fibronectin-like domain (MMP9CAT, residues 107-215 and 391-443) (human, UniProt P14780 107-215; P14780 391-443, conjugated to DyLight-650 for the yeast display sorting and flow cytometry)
T1 construct: human MMP9 catalytic domain, first stretch, residues 107-215 (before the fibronectin-like domain, which is left out); human MMP9 catalytic domain, second stretch, residues 391-443 (after the fibronectin-like domain); In the functional rows the full-length MMP9 secreted by MCF-7-MMP9 cells is meant; source: gift from Irit Sagi (Weizmann Institute of Science), purified
T1 chain (looked up): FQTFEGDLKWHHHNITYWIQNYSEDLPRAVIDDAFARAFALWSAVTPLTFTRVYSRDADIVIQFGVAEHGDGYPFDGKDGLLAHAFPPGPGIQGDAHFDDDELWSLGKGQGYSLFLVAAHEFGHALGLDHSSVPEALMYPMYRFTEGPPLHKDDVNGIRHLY

T2: MMP1 catalytic domain (MMP1CAT) (UniProt P03956 100-269)
T2 construct: catalytic domain of MMP1 (collagenase); source: purified as previously described [66, 91]
T2 sequence (looked up): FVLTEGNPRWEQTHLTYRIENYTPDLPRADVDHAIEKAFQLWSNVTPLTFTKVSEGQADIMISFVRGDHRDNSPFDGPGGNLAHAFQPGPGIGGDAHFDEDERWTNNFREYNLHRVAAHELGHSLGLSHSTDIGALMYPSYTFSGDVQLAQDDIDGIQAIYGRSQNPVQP


Columns and labels:
[1] = target: T1, MMP9 catalytic domain lacking the …; experiment: enzyme inhibition assay (fluorogenic substrate, fit to Morrison's tight binding equation); 0.0075 nM MMP14CAT or MMP9CAT (MMP1CAT, MMP10CAT: concentration not stated) incubated with 0.4-25 nM or 1.5-500 nM inhibitor for 1 h at 37 C in TCNB buffer (50 mM Tris-HCl pH 7.5, 100 mM NaCl, 5 mM CaCl2, 0.05% Brij), then 15 uM Mca-Pro-Leu-Gly-Leu-Dpa-Ala-Arg-NH2; Ki from the apparent Ki; mean of three experiments; details: both partners purified
[2] = target: T3, MMP14 catalytic domain (MMP14CAT, residues 112-292) (human, UniProt P50281 112-292, conjugated to DyLight-488 for the yeast display sorting and flow cytometry); experiment: as above; details: both partners purified
T3 construct: human MMP14 catalytic domain, residues 112-292; In the functional rows the MMP14 of the cells (endogenous in U87MG, or pCMV MMP14 in MCF-7) is meant; source: E. coli BL-21 (DE3), pET3a, purified as previously described

[3] = target: T1, MMP9 catalytic domain lacking the …; experiment: cell-based or functional assay
[4] = target: T3, MMP14 catalytic domain (MMP14CAT, …); experiment: cell-based or functional assay
[5] = target: T4, MMP10 catalytic domain (MMP10CAT) (UniProt P09238 99-263); experiment: enzyme inhibition assay (fluorogenic substrate, fit to Morrison's tight binding equation); 0.0075 nM MMP14CAT or MMP9CAT (MMP1CAT, MMP10CAT: concentration not stated) incubated with 0.4-25 nM or 1.5-500 nM inhibitor for 1 h at 37 C in TCNB buffer (50 mM Tris-HCl pH 7.5, 100 mM NaCl, 5 mM CaCl2, 0.05% Brij), then 15 uM Mca-Pro-Leu-Gly-Leu-Dpa-Ala-Arg-NH2; Ki from the apparent Ki; mean of three experiments; details: both partners purified
T4 construct: catalytic domain of MMP10 (stromelysin); source: purified as previously described [66, 91]

[6] = target: T2, MMP1 catalytic domain (MMP1CAT); experiment: as above; details: both partners purified

T4 sequence (P09238 99-263): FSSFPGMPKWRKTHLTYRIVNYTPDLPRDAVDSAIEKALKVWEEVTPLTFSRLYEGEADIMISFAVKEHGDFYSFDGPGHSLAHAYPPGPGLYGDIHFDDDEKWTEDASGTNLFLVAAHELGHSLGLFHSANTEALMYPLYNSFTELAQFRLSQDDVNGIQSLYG

Row | Ki [1] [nM] | Ki [2] [nM] | inhibition of the gelatin-degrading activity of MMP9 from MCF-7-MMP9 supernatant (gelatin zymography, gel incubated with 100 nM inhibitor) [3] [%] | inhibition of MMP2 activation by MMP14 in U87MG cells (gelatin zymography of media, 100 nM inhibitor, 48 h) [4] [%] | inhibition of trans-well migration of MCF-7-MMP14 cells (100 nM inhibitor, 24 h) [4] [%] | Ki [5] [nM] | Ki [6] [nM] | Binder
1 | 3.58 ± 0.5 | 0.03 ± 0.003 | – | 45 | 38 | 3.2 ± 0.4 | 0.92 ± 0.15 | N-TIMP2_(14_17), soluble form (designed binder, limits worked out from the printed primers (forward primer encodes CSCD, reverse primer ends at YQMGCE); source: P. pastoris X33 (pPICZalphaA), secreted, purified (Ni-NTA, Superdex 75 SEC)) CSCDPVHPQQAFCNADVVIRAKAVSEKEVDSGNDLYGSPIKRIQYEIKQIKMFKGPEKDIEFIYTAPDSASCGVSLDVGGKKEYLIAGKAEGDGKMSIFLCDFIVPWDTLSTTQKKSLNHRYQMGCE
2 | 1.25 ± 0.2 | 0.024 ± 0.005 | – | 50 | ~50 | – | – | N-TIMP2_(14_18), soluble form (designed binder, limits worked out from the printed primers (forward primer encodes CSCK, reverse primer ends at YQMGCE); also called N-TMP2_(14_18); source: P. pastoris X33 (pPICZalphaA), secreted, purified (Ni-NTA, Superdex 75 SEC)) CSCKPVHPQQAFCNADVVIRAKAVSEKEVDSGNDLYGFPIKRIQYEIKQIKMFKGPEKDIEFIYTAPFSAVCGVSLDVGGKKEYLIAGKAEGDGKMEITLCDFIVPWDTLSTTQKKSLNHRYQMGCE

Continued, binder first:

Row | Binder | Ki [1] [nM] | Ki [2] [nM] | inhibition of the gelatin-degrading activity of MMP9 from MCF-7-MMP9 supernatant (gelatin zymography, gel incubated with 100 nM inhibitor) [3] [%] | inhibition of MMP2 activation by MMP14 in U87MG cells (gelatin zymography of media, 100 nM inhibitor, 48 h) [4] [%] | inhibition of trans-well migration of MCF-7-MMP14 cells (100 nM inhibitor, 24 h) [4] [%] | Ki [5] [nM] | Ki [6] [nM]
3 | N-TIMP2WT, wild type N-terminal domain of the tissue inhibitor of metalloproteinase-2, soluble form (domain or fragment, UniProt P16035 27-153, looked up, limits worked out from the printed primers (forward primer encodes CSCSP, reverse primer ends at YQMGCE); also called wild-type N-TIMP-2; source: P. pastoris X33 (pPICZalphaA), secreted, purified (Ni-NTA, Superdex 75 SEC)) CSCSPVHPQQAFCNADVVIRAKAVSEKEVDSGNDIYGNPIKRIQYEIKQIKMFKGPEKDIEFIYTAPSSAVCGVSLDVGGKKEYLIAGKAEGDGKMHITLCDFIVPWDTLSTTQKKSLNHRYQMGCE | 0.5 ± 0.04 | 5 ± 1 | ~86 | 45 | 30 | 3.5 ± 0.8 | 0.7 ± 0.1
4 | N-TIMP2_(9_1), soluble form (designed binder, limits worked out from the printed primers (forward primer encodes CSCP, reverse primer ends at YQMGCE); source: P. pastoris X33 (pPICZalphaA), secreted, purified (Ni-NTA, Superdex 75 SEC)) CSCPPVHPQQAFCNADVVIRAKAVSEKEVDSGNDPYGWPIKRIQYEIKQIKMFKGPEKDIEFIYTAPNSAICGVSLDVGGKKEYLIAGKAEGDGKMMIKLCDFIVPWDTLSTTQKKSLNHRYQMGCE | 0.78 ± 0.02 | 240 ± 31 | ~82 | – | – | – | –
5 | N-TIMP2_(9_13), soluble form (designed binder, limits worked out from the printed primers (forward primer encodes CSCP, reverse primer ends at YQMGCE); source: P. pastoris X33 (pPICZalphaA), secreted, purified (Ni-NTA, Superdex 75 SEC)) CSCPPVHPQQAFCNADVVIRAKAVSEKEVDSGNDPYGWPIKRIQYEIKQIKMFKGPEKDIEFIYTAPNSAVCGVSLDVGGKKEYLIAGKAEGDGKMKIKLCDFIVPWDTLSTTQKKSLNHRYQMGCE | 1.2 ± 0.007 | 832 ± 44 | ~75 | – | – | 40 ± 14 | 18 ± 8
